{"source": "the nanobody polyreactivity screen of Harvey et al. (2022)"}
{"assay": "yeast display, Sf9 membrane polyspecificity reagent, FACS + sequencing; frameworks hold sequencing errors", "outline": "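Genes from sorted yeast were amplified by colony PCR, read by MiSeq 2 × 250 sequencing and filtered on CDR length. These cells carried a synthetic nanobody library in Saccharomyces cerevisiae BJ5465 and were sorted by FACS into low and high (top ~1%) gates on anti-HA and streptavidin fluorescence. Polyreactivity is labelled according to the gate of origin.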"}
{"sequence": "QVQLVESGGGLVQAGGSLRLSCAASGSTSYPYAMGWYRQAPGKERELVATITSGGRTNYADSVKGRFTISRDNAKNTVYLQMNSLKPEDTAVYYCNARFYRWRSYGYDYWGQGTQVTVSS", "polyreactivity (PSR sort gate)": "high polyreactivity"}
{"sequence": "QVQLVESGGGLVQAGGSLRLSCAASGSTSYTNAMGWYRPAPGKERELVAGITRSGDSTYYADSVKGRFTISRDNAKNTVYLQMNSLKPEDTAVYYCAADIGDYWWGYYTGYYYWGQGTQVTVSS", "polyreactivity (PSR sort gate)": "high polyreactivity"}
{"sequence": "QVQLVESGGGLVQAGGSLRLSCAASGSTSYYYAMGWYRQAPGKERELVAAISYSGGRTYYADSVKGRFTISRDNAKNTVYLQMNSLKPEDTAVYYCAKTFRGQPYLRYRYYYWGQGTQVTVSS", "polyreactivity (PSR sort gate)": "high polyreactivity"}
{"sequence": "QVQLVESGGGLVQAGGSLRLSCAASGSTTHYYAMGWYRQAPGKEWELVASITWSVGSTYYADSVKGRFTISRDNAKNTVYLQMNSLKPEVTAVYYCAGRPFPRRYDYWGQGTQVTVSS", "polyreactivity (PSR sort gate)": "low polyreactivity"}
{"sequence": "QVQLVESGGGLVQAGGSLRLSCAASGSTVGANAMGWYRQAPGKERELVATISSGGRTYYADSVKGRFTISRDNAKNTVYLQMNSLKPEDTAVYYCNAGADYTYVYISVYVLYDYWGQGTQVTVSS", "polyreactivity (PSR sort gate)": "low polyreactivity"}
{"sequence": "QVQLVESGGGLVQAGGSLRLSCAASGSTVKYAMGWYRQAPGKDRELVASIRRSGGSTYYADSVKGRFTISRDNAMNTVYLQMNRLKPEDTAVYYCNARFPYNWRYDYWGQGTQVTVSS", "polyreactivity (PSR sort gate)": "high polyreactivity"}
{"sequence": "QVQLVESGGGLVQAGGSLRLSCAASGSTVPQYTMGWYRQAPGKERELVAAITKSGGSTYYADSVKGRFTISRDNAKNTVYLQMNSLKPEDTAVYYCNRRWGWRLYDYWGQGTQVTVSS", "polyreactivity (PSR sort gate)": "high polyreactivity"}
{"sequence": "QVQLVESGGGLVQAGGSLRLSCAASGSTVTYNTMGWYIQAPGKERELVAAISSGGSTYYADSVKGRFTISRDNAKNTVYLQMNSLKPEDTAVYYCAAEHYDYPYDYYCGQGTQVTVSS", "polyreactivity (PSR sort gate)": "high polyreactivity"}
{"sequence": "QVQLVESGGGLVQAGGSLRLSCAASGSTVYHNAMGRYRQAPGKERELVAAITWSGSRTYYADSVKGRFTISRDNAKNTVYLQMNSLKPEDTAVYYCAARDYWGQGTQVTVSS", "polyreactivity (PSR sort gate)": "high polyreactivity"}
{"sequence": "QVQLVESGGGLVQAGGSLRLSCAASGSTVYRYTMGWYRQAPGKERELVAAISRSGGRTYYADSVKGRFTISRDNAKNTVYLQMNSMKPEDTAVDYCNAEIAASAVQAQEGEFWGQGTQVTVSS", "polyreactivity (PSR sort gate)": "high polyreactivity"}
{"sequence": "QVQLVESGGGLVQAGGSLRLSCAASGSTVYTNAMGWYRQAPGKERELVAAISSSGDSTYYADSVKGRFTISRDNAKNTVYLQMNSLKPEDTAVYYCAADKYLSYDFWGQGTQVTVSS", "polyreactivity (PSR sort gate)": "low polyreactivity"}
{"sequence": "QVQLVESGGGLVQAGGSLRLSCAASGSTVYYNAMGWYRQAPGKEREFVAAINCRGGSTYYADSVKGRFTISRDNSKNTVYLQMNSLKPEDTAVYYCAAEEPSTYYYVRSGYDYHFWEMYSWGQGTQVTVSS", "polyreactivity (PSR sort gate)": "low polyreactivity"}
{"sequence": "QVQLVESGGGLVQAGGSLRLSCAASGSTYAYDMGSYRQAPGKERELVAAISWDGGDTYYADSVKGRFTISRDNAKNTVYLQMNSLKPEDTAVYYCNTVFQRSGYAAGVDYWGQGTQVTVSS", "polyreactivity (PSR sort gate)": "high polyreactivity"}
{"sequence": "QVQLVESGGGLVQAGGSLRLSCAASGSTYDIYAMGWYRQAPGKEREKVAAISWSGGSTHYADSVKGRFTISRDNAKNTVFFQMNSLKPEDTAVYYCAAVGRLWSLWRTKSYNYWGQGTEVTVSS", "polyreactivity (PSR sort gate)": "low polyreactivity"}
{"sequence": "QVQLVESGGGLVQAGGSLRLSCAASGSTYDNNRMGWYRQATGKERELVASITFNVGSTYYADSVKGRFTISRDNAKNTVYLQMNSLKPEETAVYYCAADDLNLSQALGYDYWGQGTQVTVSS", "polyreactivity (PSR sort gate)": "low polyreactivity"}
{"sequence": "QVQLVESGGGLVQAGGSLRLSCAASGSTYHYAMGWYRQAPGKERELVASITWRGDTTYYADSVKGRFTISRDNAKNTVYLQMNSLKPEDTAVYYGATVPYSPPSAGPEYDYWGQGTQVTVSS", "polyreactivity (PSR sort gate)": "high polyreactivity"}
{"sequence": "QVQLVESGGGLVQAGGSLRLSCAASGSTYNNAMGWYRQAPGKERELVAAIRWSGGSTYYADSVKGRFTISRDNAKNTVYLQMNSLKPEDTAVYYCAARYRWSRKRYNDYDYWGQGTQVTVSS", "polyreactivity (PSR sort gate)": "high polyreactivity"}
{"sequence": "QVQLVESGGGLVQAGGSLRLSCAASGSTYNVNAMGWARQAPGKERELVAAITSSGGSSNYADSVKGRFTISRDNAKNTVYLQMNSLKPEDTAVYYCAADAIFFSRLNLGYDYWGQGTQVTVSS", "polyreactivity (PSR sort gate)": "low polyreactivity"}
{"sequence": "QVQLVESGGGLVQAGGSLRLSCAASGSTYRNAMGWYRQAPGKERELVAAITKSDSSTYYADSVKGRFTISRDNAKNTVYLQMYSLKPEDTAVYYCNVDRAWPPWPYDYWGQGTQVTVSS", "polyreactivity (PSR sort gate)": "low polyreactivity"}
{"sequence": "QVQLVESGGGLVQAGGSLRLSCAASGSTYRYTMGWYRQAPGKERELVAAITGSAGRTYYADSVKGRFTISRDNAKNTVYLQMNSLKPEDTAVYYCNKDRPRKFWDYYYWGQGTQVTVSS", "polyreactivity (PSR sort gate)": "high polyreactivity"}
{"sequence": "QVQLVESGGGLVQAGGSLRLSCAASGSTYTYALGWSRQAPGKERELVADITQSGGSTYYADSVKGRFTISRDNAKNTVYLQMNSLKTEDTAVYYCNAESRHVFEDEYWGQGTQVTGSS", "polyreactivity (PSR sort gate)": "low polyreactivity"}
{"sequence": "QVQLVESGGGLVQAGGSLRLSCAASGSTYVGYAMGWYRQAPRKERDLVADIDSIGGSTYYADTVKRRFTISRDKAKNTVYLQMNSLKPEDTAVYYCAARRFDTALVLYDYWGQCTQVTVSS", "polyreactivity (PSR sort gate)": "low polyreactivity"}
{"sequence": "QVQLVESGGGLVQAGGSLRLSCAASGSTYVGYTLGWYRQAPGKERELVAAITRRSGSTYYADSVKGRFTISRDNAKNTVYVQMNSLKPEDTAVYYCAKDFSRYSRFGHTEHDYWGQGTQVTVSS", "polyreactivity (PSR sort gate)": "high polyreactivity"}
{"sequence": "QVQLVESGGGLVQAGGSLRLSCAASGSTYYENTMGWYRQAPGKEREMVAAISFRGGSTYYADSVKGRFTISRDNAKNTVYLQMNSLKPDDTAVYYCAKEYYTVRLYDYWGQGTQGTVSS", "polyreactivity (PSR sort gate)": "low polyreactivity"}
{"sequence": "QVQLVESGGGLVQAGGSLRLSCAASGSTYYLYAMGWYRQAPGKESEFVARISASGGNTYYADSVKGRFTISRDNAKNTVYLQMNRLIPEDTAVFYCAARVRGRNASDYDYYYWGQGTQVTVSS", "polyreactivity (PSR sort gate)": "high polyreactivity"}
{"sequence": "QVQLVESGGGLVQAGGSLRLSCAASGSTYYNAMGWYIQAPGKERELVAAIRFRSGSTYYADSVKGRFTISRDNAKNTVYLQMNSMKPVDTAVYYCAADNKRSWRYAYNYWGQGTQVTVSS", "polyreactivity (PSR sort gate)": "high polyreactivity"}
{"sequence": "QVQLVESGGGLVQAGGSLRLSCAASGSTYYNTMGWYRQAPGKEREFVAAITWSTGTTYYADSVKGRFTISRDNAKNTVYLQMNSLKPEDTAVYYCATDDSRDWLNYWGQGTQVTVSS", "polyreactivity (PSR sort gate)": "low polyreactivity"}
{"sequence": "QVQLVESGGGLVQAGGSLRLSCAASGSTYYQYVMGWYRQAPGKEMELVAAISGSGGSTYYADSVKGRFTISRDNAKNTVYLQMNSLKPEDTAVYYCAARLRGRGRPPFGYWGQGTQLTVSS", "polyreactivity (PSR sort gate)": "high polyreactivity"}
{"sequence": "QVQLVESGGGLVQAGGSLRLSCAASGSTYYTNAMGWYRQAPGKERELVATITSSGGITSYADSVKGRFTISRDNAKNTVYLQMNSVKPEDTAVYYCAADFGSSYDTHEYGYWGQGTQVTVSS", "polyreactivity (PSR sort gate)": "low polyreactivity"}
{"sequence": "QVQLVESGGGLVQAGGSLRLSCAASGSTYYYNAMGWYRQAPGKERELVARISRSGGSTYADSVKGRFSISRDNAKNTVYLQMNSLKPEDTAVYYCNAYAYGTPEFTSYAVRYDYWGQGTQVTVSS", "polyreactivity (PSR sort gate)": "low polyreactivity"}
{"sequence": "QVQLVESGGGLVQAGGSLRLSCAASGSYFTYNRMGRYRQAPGKEREFVAANTWTGGSTYADSVKGRFTISRDNAKYTVYLQMNSLKPEDTAVYYCAAVRRFSWYTPVTTRRYYYWGQGTQVTVSS", "polyreactivity (PSR sort gate)": "high polyreactivity"}
{"sequence": "QVQLVESGGGLVQAGGSLRLSCAASGTFAFYTMGWYRQAPGKERELVAAISWDGGDTYYADSVKGRFTISRDNAKNTVYLQMNSLKPEDTAVYYCAADYSNSGYGYWGQGTQVTVSS", "polyreactivity (PSR sort gate)": "low polyreactivity"}
{"sequence": "QVQLVESGGGLVQAGGSLRLSCAASGTFAGNAMGCYRQSPGKERELVASITTGGRTYYADSVKGRFTISRDNAKNTVYLQMNSLKPEDTAVFYCSADLIRELEFDYWGQGTQVTVSS", "polyreactivity (PSR sort gate)": "low polyreactivity"}
{"sequence": "QVQLVESGGGLVQAGGSLRLSCAASGTFAIYAMGWYRQAPGKERELVAAIRWRGGRTYYADSVKGRFTISRDNAKNTVYFQMNSLKPEDTAVYYCAAEVPYYWWSPYRVDVGYWGQGTQVTVSS", "polyreactivity (PSR sort gate)": "high polyreactivity"}
{"sequence": "QVQLVESGGGLVQAGGSLRLSCAASGTFDAYAMGWYRQAPGKERELVASISSSGGSTYYADSVKGRFTISRDNAKNTVYLQMNSLKPEDTAVYYCAATDFWYSGYYWGQGTQVTVSS", "polyreactivity (PSR sort gate)": "low polyreactivity"}
{"sequence": "QVQLVESGGGLVQAGGSLRLSCAASGTFDTYSMGWNRQAPGKERELVADISSVGSTYYADSVKWRFTISRDNAKNTVYLQMNSLKPEDTAVYYCAATYPYPYYYIEYYYWGQGTQVTVSS", "polyreactivity (PSR sort gate)": "low polyreactivity"}
{"sequence": "QVQLVESGGGLVQAGGSLRLSCAASGTFGGYAMGWYRQAPGKEREFVAAIDYGGGSTYYADSVKGRFTMSRDNAKNTVYLQMNSLKPEDTAVYYCAAEHWGYTYDQDFSTWATIYEYWGQGTQVTVSS", "polyreactivity (PSR sort gate)": "high polyreactivity"}
{"sequence": "QVQLVESGGGLVQAGGSLRLSCAASGTFKYYAMGWYIQAPGEERELVAAISRGGRTNYADSVKGRFTISRDNAKNTVYLQMTSLKPEDTAVYYCAARKADTVFKFEYWGQGTQVTVSS", "polyreactivity (PSR sort gate)": "high polyreactivity"}
{"sequence": "QVQLVESGGGLVQAGGSLRLSCAASGTFRRYPMGWYRQEPGKERELVAAITSSGGTYYADSVKGRFTISRDNAKHTVYLQMNSLKPEDTALYYCAARDYWSRYFRPGIVGWHDYWGQGTQVTVSS", "polyreactivity (PSR sort gate)": "high polyreactivity"}
{"sequence": "QVQLVESGGGLVQAGGSLRLSCAASGTFVTYMGLYRQAPGKERELVAAIRNGGSTNYADSVKGRFTISRDNAKNTVYLQMNSLKPEDTAVDYFTADYTYWNGWFATRDYWGQGTQVTVSS", "polyreactivity (PSR sort gate)": "low polyreactivity"}
{"sequence": "QVQLVESGGGLVQAGGSLRLSCAASGTFWLYTMGWYRQAPGKERELVAAISLTAGNTYYADSVKGRFTISRDNAKNTVYLQMNSLKPEDTAVYYCAADHYYYTRYEYWGQGTQVTVSS", "polyreactivity (PSR sort gate)": "low polyreactivity"}
{"sequence": "QVQLVESGGGLVQAGGSLRLSCAASGTFYRNAMGWYRQAPGKERELVAAISSGSNTDYADSVKGRFTISRDNAKNTVYLQMNSLKPEDTAVYYCAADSLARRYDYWGQGTQVTVSS", "polyreactivity (PSR sort gate)": "low polyreactivity"}
{"sequence": "QVQLVESGGGLVQAGGSLRLSCAASGTIFASYAMGWYRQAPGKERELVAAISDGGGRTYYADSVKGRFTISRDNAKNTVYLQMNSLKPEDTAVYYCAAYAVYTYRRARGYWGQGTQVTVSS", "polyreactivity (PSR sort gate)": "high polyreactivity"}
